Laboratory results published in the supplement of paper PMC12764529.
± gives the half width of the 95% confidence interval.

Assays:
[1] = folding stability dG unfold from trypsin proteolysis; higher = more stable
Procedure, shortened: (§1)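 Sequencing followed digestion of designed mini-proteins with trypsin and chymotrypsin, each at 11 concentrations in threefold dilutions together with a no-protease condition. The mini-proteins were under 80 residues, had no cysteine, sat in a PA-tagged cDNA display construct, and were kept only if AlphaFold2 dimer inter-PAE was above 15. From the counts, Bayesian fitting gave K50, and unfolding free energy was derived against a sequence-predicted unfolded-state K50 and a shared folded-state K50, per protease or combined.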

[2] = folding stability dG unfold from chymotrypsin proteolysis; higher = more stable
Procedure, shortened: as §1

[3] = folding stability dG unfold (combined trypsin and chymotrypsin); higher = more stable
Procedure, shortened: as §1

Row | Sequence | folding stability dG unfold [1] [kJ/mol] | folding stability dG unfold [2] [kJ/mol] | folding stability dG unfold [3] [kJ/mol]
1 | SAGGSAGGSAGGPKVEIVEVTVEGDKVTIRVKNEETGEWVTLEVTLKDLPKVTFVLKPKSAGGSAGGSAGGS [r10_655_TrROS_Hall] | 4.9 ± 0.134 | 4.86 ± 0.795 | 4.97 ± 0.46
2 | SAGGSAGGSAGGPKVFKFKDKIIVIYPNKKPNEEVKVVVKNPKTGKKEEFKIKIPKELLKSAGGSAGGSAGG [r7_834_TrMRF] | 2.14 ± 0.331 | 4.66 ± 0.544 | 3.54 ± 0.46
3 | SAGGSAGGSAGGPLIVFERNADGTLTAVAVDEETGEVTVTRVTLKDGKLTVETETLPLDESAGGSAGGSAGG [r7_28_TrROS_Hall] | 6.23 ± 0.201 | 7.614 ± 0.0711 | 6.9 ± 0.176
4 | SAGGSAGGSAGGPNHYVMATETIEFEFEIRTRNEDGKPQEIKIKFTLTVIRMFPLPPGDPSAGGSAGGSAGG [r7_926_TrROS] | 14.1 ± 1.76 | 21 ± 1.09 | 19.8 ± 1.05
5 | SAGGSAGGSAGGPNNKPKPKQVTFDIEIEDIEIDPEHGLISIEIRFPDGGKEITARIPISAGGSAGGSAGGS [r10_427_TrROS] | 0.587 ± 0.247 | 1.13 ± 0.46 | 1.16 ± 0.669
6 | SAGGSAGGSAGGPPDLVKVRFIKVSVKLKEVKENPNGEKEMKLEMKIEEVEVTVRKDDLSAGGSAGGSAGGS [r10_524_TrROS_Hall] | 10.9 ± 0.879 | 11.4 ± 0.502 | 11.3 ± 0.628
7 | SAGGSAGGSAGGPPVTLLVVVRNEDGSLYLVRVEFDLETNEVKVEVFTLDDLKNLPEELSAGGSAGGSAGGS [r10_1077_TrROS_Hall] | 8.94 ± 0.586 | 15.3 ± 0.314 | 13.6 ± 1.05
8 | SAGGSAGGSAGGPTLELEITLPDGFKLRVTFDPEKGLRVELVEPVPAPPPKVEYRSLEDLSAGGSAGGSAGG [r11_188_TrROS_Hall] | 2.31 ± 0.544 | 6.76 ± 0.46 | 5.73 ± 0.753
9 | SAGGSAGGSAGGPVFTPVGAGDEDTVTTETLPDGSPVLRYTVPGTGVVEVALPDGTLLAESAGGSAGGSAGG [r11_601_JUSTAS] | -3.02 ± 0.305 | -6.96 ± 3.31 | -3.7 ± 0.92
10 | SAGGSAGGSAGGPYWRVKIEWMDPNGKKKEHTFTFPPGWPLEEIAEELKPNGYKIEVEPLSAGGSAGGSAGG [r7_226_TrROS] | 4.02 ± 0.184 | 7.1 ± 0.418 | 6.11 ± 0.356
11 | SAGGSAGGSAGGQTIVIDSRLLRTALENGDLEKLKALVEEAGYNPENAKIYLITPEELKESAGGSAGGSAGG [r7_3_TrMRF] | -0.558 ± 0.418 | 3.1 ± 0.46 | 1.94 ± 0.23
12 | SAGGSAGGSAGGRFEVLGVEPLPGNWVRVRVRYPGLGREATFLVRVSSLPLPPVDLDRFDSAGGSAGGSAGG [r11_986_TrMRF] | 7.61 ± 0.155 | 13 ± 0.192 | 11.3 ± 0.347
13 | SAGGSAGGSAGGSAGRLVKETKTTSYIFTFKKPTGEPISKKTSFVTSSLILLSDPSKISSAGGSAGGSAGGS [r4_450_JUSTAS] | 17.5 ± 1.55 | 19.2 ± 1.63 | 19.2 ± 1.84
14 | SAGGSAGGSAGGSAKIDLPFPAEITEIRPRPDGSVEIRLSFPTYTVTAIIPPNGIKIYGSAGGSAGGSAGGS [r4_280_TrMRF] | 3.58 ± 0.0711 | -0.0885 ± 0.46 | 2.04 ± 0.272
15 | SAGGSAGGSAGGSAPPNLIIFIHVEIKIKEPKFDPGNGKPEYEIEITDIPIQIMPPDDLSAGGSAGGSAGGS [r4_417_TrROS] | 8.98 ± 0.669 | 10 ± 0.368 | 9.47 ± 0.46
16 | SAGGSAGGSAGGSAPYPNTVVPTPLLSSVVTETTVEFFPDGTVVPVSTTTTVVLVYRLLSAGGSAGGSAGGS [r4_288_JUSTAS] | 14.8 ± 0.544 | 19.9 ± 0.502 | 19 ± 0.628
17 | SAGGSAGGSAGGSDKGQPRVEIPMPFFMPNPNYVIRITMEIDLDPNGQIREIDVEVYKFSAGGSAGGSAGGS [r4_75_TrROS] | 13.4 ± 0.402 | 19.6 ± 0.418 | 17.1 ± 0.586
18 | SAGGSAGGSAGGSDVKIEVERGPNGYYTVTIELNGKPKIIPFPPGRPPEDAKDEIKDLLSAGGSAGGSAGGS [r4_7_TrROS] | 2.32 ± 0.243 | -1.17 ± 0.544 | 1.4 ± 0.502
19 | SAGGSAGGSAGGSDYIMFRIPAPPGEKIEIPIPNGWEVEINPQPHNGRWYFMIKIPEDASAGGSAGGSAGGS [r4_360_TrROS] | 4.37 ± 0.356 | 4.56 ± 0.46 | 4.74 ± 0.502
20 | SAGGSAGGSAGGSELIFKTEDGYYVKVKLKNGKTIVFPAENLEELKKLNVEKVEVVPAKSAGGSAGGSAGGS [r4_348_TrROS_Hall] | 1.39 ± 0.163 | 3.48 ± 0.176 | 2.86 ± 0.268
21 | SAGGSAGGSAGGSEVEVLDSRPLPDGHHLVLVRFPDGSYALYRIYPDGSVEVEVFSDDGSAGGSAGGSAGGS [r4_483_TrMRF] | 10.3 ± 0.276 | 17.6 ± 0.121 | 15.9 ± 0.351
22 | SAGGSAGGSAGGSFELVGLVSEFEDENGIPVRVFKAKNPLLGYEFLVVVLPNGEVFFLPSAGGSAGGSAGGS [r10_1123_TrMRF] | 11.7 ± 0.222 | 13.07 ± 0.0586 | 12.5 ± 0.372
23 | SAGGSAGGSAGGSFKVTYFPGEKLLAVTFPDGSKKIFKIDDKGNPTIIAVIDPDKGKVLPSAGGSAGGSAGG [r7_659_TrMRF] | 7.77 ± 0.142 | 10.97 ± 0.0837 | 9.83 ± 0.213
24 | SAGGSAGGSAGGSGMTLPIPLSELTTEEIRELTKPDEDLVIKTEEDEPVVIPYGEIKPESAGGSAGGSAGGS [r4_382_JUSTAS] | 2.9 ± 0.293 | -4.41 ± 1.26 | 0.854 ± 0.322
25 | SAGGSAGGSAGGSGMTLSVTVLEEKPERLPNGGTIITRTVRIPETGEVIEEVTYEPGALSAGGSAGGSAGGS [r4_94_JUSTAS] | -2.49 ± 0.711 | 0.222 ± 0.243 | -0.385 ± 0.356
26 | SAGGSAGGSAGGSGMTPIPLEVLERKVTEYDPKNGKITVEALAILPDGTPVKLKFTVELSAGGSAGGSAGGS [r4_184_JUSTAS] | 4.64 ± 0.176 | 5.75 ± 0.753 | 5.72 ± 0.92
27 | SAGGSAGGSAGGSGPVPVTIKSVTTYPEKDVYKVETVPATPEPITITLSPEELSDVVILSAGGSAGGSAGGS [r4_51_JUSTAS] | -7.06 ± 2.38 | -1.83 ± 0.837 | -2.35 ± 0.795
